In data set [1] the target is T1, KDD2, kinase-dead EhAGCK2 (K147A and D242A) (Entamoeba histolytica, UniProt C4M3C2 1-434, K147A | D242A).
T1 construct: source: E. coli C41(DE3), purified (Ni2+-NTA)
T1 sequence: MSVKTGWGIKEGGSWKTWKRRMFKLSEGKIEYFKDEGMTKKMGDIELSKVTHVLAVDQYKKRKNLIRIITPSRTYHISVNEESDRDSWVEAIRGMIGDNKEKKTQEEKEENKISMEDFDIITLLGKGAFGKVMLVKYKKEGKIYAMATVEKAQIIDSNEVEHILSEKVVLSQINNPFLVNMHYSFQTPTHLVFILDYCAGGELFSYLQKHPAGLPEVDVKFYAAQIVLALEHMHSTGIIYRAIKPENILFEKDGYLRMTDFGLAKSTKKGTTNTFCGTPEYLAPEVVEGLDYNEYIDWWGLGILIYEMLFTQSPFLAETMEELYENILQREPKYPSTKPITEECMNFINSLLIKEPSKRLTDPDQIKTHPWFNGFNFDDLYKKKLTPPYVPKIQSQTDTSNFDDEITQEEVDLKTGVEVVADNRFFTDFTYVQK
The data set is described as follows: MST; His-tagged kinase labelled with RED-tris-NTA 2nd Generation dye, kept constant (50 nM by the legend); unlabelled peptide in 16 1:1 dilutions, 500 uM to 153 nM as printed; 50 mM Tris-Cl pH 8, 150 mM NaCl, 1 mM beta-ME, 5% glycerol; 25 C; Monolith NT.115, 50% LED, medium MST power. The following applies: both partners purified.

The target of data set [2] is T2, EhAGCK1 WT (Entamoeba histolytica AGC family kinase 1, EHI_188930), full-length recombinant His-tagged protein (Entamoeba histolytica, UniProt C4M2W0 1-433).
T2 construct: also called His-EhAGCK1; source: E. coli C41(DE3), purified (Ni2+-NTA)
T2 sequence: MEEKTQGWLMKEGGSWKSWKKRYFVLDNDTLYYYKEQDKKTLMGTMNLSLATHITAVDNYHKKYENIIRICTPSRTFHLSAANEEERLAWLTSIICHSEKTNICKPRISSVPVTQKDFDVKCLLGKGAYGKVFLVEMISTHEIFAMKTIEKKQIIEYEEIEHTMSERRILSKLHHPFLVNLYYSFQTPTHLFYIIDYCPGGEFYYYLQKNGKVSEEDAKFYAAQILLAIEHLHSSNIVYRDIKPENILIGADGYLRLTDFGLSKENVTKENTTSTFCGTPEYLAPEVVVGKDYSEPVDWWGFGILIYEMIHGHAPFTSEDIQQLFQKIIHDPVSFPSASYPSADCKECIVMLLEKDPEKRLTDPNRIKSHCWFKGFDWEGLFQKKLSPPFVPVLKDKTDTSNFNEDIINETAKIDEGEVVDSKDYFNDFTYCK
Described as above. The following applies: both partners purified.

Data set [3] has as its target T3, KDD1, kinase-dead EhAGCK1 (K147A and D241A) (Entamoeba histolytica, UniProt C4M2W0 1-433, K147A | D241A).
T3 construct: source: E. coli C41(DE3), purified (Ni2+-NTA)
T3 sequence: T2 sequence with K147A, D241A
The data set is described as above. The following applies: both partners purified.

Data set [4] deals with T4, EhAGCK2 WT (Entamoeba histolytica AGC family kinase 2, EHI_053040), full-length recombinant His-tagged protein (Entamoeba histolytica, UniProt C4M3C2 1-434).
T4 construct: source: E. coli C41(DE3), purified (Ni2+-NTA)
T4 sequence: T1 sequence with A147K, A242D
The data set is described as above. The following applies: both partners purified.

Substrate in data set [5]: Nc1ncnc2c1ncn2[C@@H]1O[C@H](COP(=O)(O)OP(=O)(O)OP(=O)(O)O)[C@@H](O)[C@H]1O
The data set is described as follows: ADP-Glo luminescent kinase assay with 0-1000 uM ATP, 50 uM EhRhoGEF peptide as co-substrate and 20 uM kinase, pH 7.5, 30 °C, Michaelis-Menten fit. The data set is classed as biochemical. On the procedure:
(§1) Fig 6 Graphs representing the Michaelis-Menten kinetics of EhAGCK1 and EhAGCK2. Panel A-D represents the Km and Vmax for peptide substrates, assays were performed in the presence of 20 μM EhAGCK1 (WT and KDD1) and EhAGCK2 (WT and KDD2) proteins were assayed in the presence of 250 μM ATP and serial dilutions (0 μM to 200 μM) of EhRhoGEF, EhCoactosin, and HsGSK3 peptide substrates. […] Panel E-H represents the Km and Vmax for ATP, assays were assessed in the presence of 50 μM peptide substrates (EhRhoGEF, EhCoactosin, and HsGSK3), serial dilution(0 μM to 1000 μM) of ATP, and 20 μM of the proteins EhAGCK1 (WT, and KDD1) and EhAGCK2 (WT, and KDD2). […] Relative luminescence unit (RLU) values are converted to μM/min using the method described in the Materials and Methods section. […]
(§2) Further, we determined the Km and Vmax values for ATP as it serves a vital metabolic molecule and substrate crucial for kinase activity, determining ATP Km and Vmax a key biochemical parameters for all kinases. […] Additionally, we compared previously determined Km and Vmax values of human Akt proteins in the presence of GSK3 peptide with our kinase protein results, which are presented in Table 1.
(§3) The phosphorylation activity of kinases was measured using the ADP-Glo kinase assay kit according to the manufacturer’s protocol with few modifications (Promega, Madison, WI, Catalogue number V6930). […]

Substrate in data set [6]: Nc1ncnc2c1ncn2[C@@H]1O[C@H](COP(=O)(O)OP(=O)(O)OP(=O)(O)O)[C@@H](O)[C@H]1O
The data set is described as follows: ADP-Glo luminescent kinase assay with 0-1000 uM ATP, 50 uM HsGSK3 peptide (GRPRTTSFAESCK) as co-substrate and 20 uM kinase, pH 7.5, 30 °C, Michaelis-Menten fit. The data set is classed as biochemical. The procedure: as §1, §2, §3
A general note: In ADP-Glo the light output rises with the ADP produced.

Substrate in data set [7]: Nc1ncnc2c1ncn2[C@@H]1O[C@H](COP(=O)(O)OP(=O)(O)OP(=O)(O)O)[C@@H](O)[C@H]1O
The data set is described as follows: ADP-Glo luminescent kinase assay with 0-1000 uM ATP, 50 uM EhCoactosin peptide as co-substrate and 20 uM kinase, pH 7.5, 30 °C, Michaelis-Menten fit. In kind it is biochemical. On the procedure:
as §1, §2, §3

Numbering of substitutions follows the chain as printed.

Broadly, the Kd is the concentration at which binding is half-saturated.

B1: human GSK3 (HsGSK3) peptide (peptide)
peptide: GRPRTTSFAESCK
notes: also called human GSK3 peptide substrate; source: synthetic peptide
As for B1, the Kd in data set [1] is 2380 nM; in data set [2] it was 2620 nM; in data set [3], 1.07 mM; in data set [4], 84.8 nM.

B2: EhAGCK1 WT (Entamoeba histolytica HM-1:IMSS) (protein)
chain: T2 sequence
notes: full-length, His-tagged (pCold), expressed in E. coli C41(DE3)
Take B2: the Km was determined as 125.4 µM in data set [5] and 241.7 ±22.2 μM uM in data set [6].

B3: EhAGCK2 WT (Entamoeba histolytica HM-1:IMSS) (protein)
chain: T1 sequence with A147K, A242D
notes: as for B2
For the molecule B3, the Km in data set [7] was found to be 92.06 µM; in data set [6], 291± 74.4 μM uM.

(Values after article PMC11642994, “AGC family kinase of Entamoeba histolytica: Decoding the members biochemically” (PLOS Pathogens, 2024).)
